From IntAct's records for PubMed 23260139

Molecular target: vinc_mouse Vcl (UniProt Q64727)
Sequence (Q64727 whole entry): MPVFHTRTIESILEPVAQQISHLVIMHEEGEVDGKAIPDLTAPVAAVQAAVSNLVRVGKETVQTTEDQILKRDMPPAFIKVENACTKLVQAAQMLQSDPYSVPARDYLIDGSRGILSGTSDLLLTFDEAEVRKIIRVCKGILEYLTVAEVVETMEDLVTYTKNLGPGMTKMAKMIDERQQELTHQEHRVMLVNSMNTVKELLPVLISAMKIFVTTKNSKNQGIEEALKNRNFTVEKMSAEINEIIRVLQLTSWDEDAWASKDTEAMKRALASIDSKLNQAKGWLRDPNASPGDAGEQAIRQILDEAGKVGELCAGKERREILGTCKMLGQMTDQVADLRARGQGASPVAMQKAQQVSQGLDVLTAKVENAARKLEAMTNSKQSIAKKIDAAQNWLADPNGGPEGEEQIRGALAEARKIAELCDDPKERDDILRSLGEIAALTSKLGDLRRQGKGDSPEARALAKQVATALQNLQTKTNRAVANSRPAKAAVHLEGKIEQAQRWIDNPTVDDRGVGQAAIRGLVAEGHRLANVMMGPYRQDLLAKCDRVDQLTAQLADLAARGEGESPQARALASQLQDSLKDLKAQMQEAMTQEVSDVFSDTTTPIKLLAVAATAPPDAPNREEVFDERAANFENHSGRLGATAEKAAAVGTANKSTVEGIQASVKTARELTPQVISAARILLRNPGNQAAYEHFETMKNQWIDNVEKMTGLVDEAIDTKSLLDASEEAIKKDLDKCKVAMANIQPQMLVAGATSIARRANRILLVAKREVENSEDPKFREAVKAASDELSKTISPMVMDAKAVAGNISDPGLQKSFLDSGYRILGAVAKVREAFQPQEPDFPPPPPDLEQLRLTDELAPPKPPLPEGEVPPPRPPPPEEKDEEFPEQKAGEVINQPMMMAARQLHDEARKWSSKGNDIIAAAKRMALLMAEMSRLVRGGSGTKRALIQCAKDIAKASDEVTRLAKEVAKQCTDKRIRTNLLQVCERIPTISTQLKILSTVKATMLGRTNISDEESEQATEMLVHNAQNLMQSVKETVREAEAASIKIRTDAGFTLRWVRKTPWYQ

Paxillin (Gallus gallus (Chicken)), P49024 E151Q, sequence (P49024 whole entry E151Q): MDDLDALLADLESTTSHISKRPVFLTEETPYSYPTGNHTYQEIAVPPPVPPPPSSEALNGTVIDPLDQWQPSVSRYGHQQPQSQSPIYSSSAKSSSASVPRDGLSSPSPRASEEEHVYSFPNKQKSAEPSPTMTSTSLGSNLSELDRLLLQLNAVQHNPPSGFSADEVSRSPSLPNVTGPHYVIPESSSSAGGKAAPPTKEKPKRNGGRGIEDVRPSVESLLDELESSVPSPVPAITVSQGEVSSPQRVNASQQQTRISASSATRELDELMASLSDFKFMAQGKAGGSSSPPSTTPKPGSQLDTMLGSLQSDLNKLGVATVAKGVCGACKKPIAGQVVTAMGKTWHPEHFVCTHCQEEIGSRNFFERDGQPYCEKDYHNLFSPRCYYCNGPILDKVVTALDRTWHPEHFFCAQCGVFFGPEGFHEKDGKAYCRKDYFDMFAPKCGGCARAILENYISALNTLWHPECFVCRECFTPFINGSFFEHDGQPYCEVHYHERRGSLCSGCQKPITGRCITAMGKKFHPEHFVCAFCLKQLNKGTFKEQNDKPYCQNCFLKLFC

Paxillin (Gallus gallus (Chicken)), P49024 E151Q
effect of a mutation on the interaction: decreasing interaction strength
